This assay addresses T1, Ebola virus GPCL trimer (thermolysin-cleaved, purified GP ectodomain) (Ebola virus (Zaire ebolavirus); GP1 …).
T1 chain 1: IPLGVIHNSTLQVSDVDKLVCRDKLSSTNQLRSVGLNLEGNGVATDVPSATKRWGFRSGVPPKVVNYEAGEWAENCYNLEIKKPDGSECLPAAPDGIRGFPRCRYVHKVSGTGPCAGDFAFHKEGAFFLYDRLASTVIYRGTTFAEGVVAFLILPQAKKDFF
T1 chain 2: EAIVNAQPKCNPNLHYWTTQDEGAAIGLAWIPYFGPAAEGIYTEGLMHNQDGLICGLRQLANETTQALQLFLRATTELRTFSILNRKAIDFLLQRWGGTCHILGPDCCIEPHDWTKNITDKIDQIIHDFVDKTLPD
The assay is described as follows: crystal structure.

The values that follow come from paper PMC4791852 (mBio, 2016).

B1: KZ52 Fab (Fab, V domains shown)
VH: EVQLLESGGGLVKPGGSLRLSCAASGFTLINYRMNWVRQAPGKGLEWVSSISSSSSYIHYADSVKGRFTISRDNAENSLYLQMNSLRAEDTAVYYCVREGPRATGYSMADVFDIWGQGTMVTVSS
VL: not shown
As to B1, the binding result is “binds”.
